Results taken from paper PMC4926178 (Viruses, 2016).
Like-named read-outs stand apart in the source and are kept apart here.

Assays:
Test in all cases: ELISA
[1] = target: glycosylated soluble gp120 (rgp 120 HIV-1 MN, baculovirus) (HIV-1 MN) (UniProt P05877)
[2] = target: T1, ribonuclease B (UniProt P61823 27-150)
T1 construct: also called RNase B
T1 sequence (looked up): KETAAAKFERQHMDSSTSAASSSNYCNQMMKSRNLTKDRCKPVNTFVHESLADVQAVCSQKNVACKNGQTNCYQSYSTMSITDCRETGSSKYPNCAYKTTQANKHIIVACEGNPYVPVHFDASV

[3] = target: glycosylated soluble gp120 (rgp 120 HIV-1 MN, baculovirus) (HIV-1 MN), P05877; conditions: remark: other sources report otherwise

Nested Cyanovirin-N (Nested CV-N) (from UniProt P81180 1-50; P81180 1-101) (designed binder)
EC50 [1]: 1.29 nM
EC50 [2]: 13 nM

B1: wild-type Cyanovirin-N (WT CV-N), P81180 1-101 (natural protein)
chain: LGKFSQTCYNSAIQGSVLTSTCERTNGGYNTSSIDLNSVIENVDGSLKWQPSNFIETCRNTQLAGSSELAAECKTRAQQFVSTKINLDDHIANIDGTLKYE
modifications: here or on the partner: glycosylated (oligomannose glycans; about 25 sites per monomer)
EC50 [3]: 1.66 nM

B2: wild-type Cyanovirin-N (WT CV-N) (natural protein)
chain: LGKFSQTCYNSAIQGSVLTSTCERTNGGYNTSSIDLNSVIENVDGSLKWQPSNFIETCRNTQLAGSSELAAECKTRAQQFVSTKINLDDHIANIDGTLKYE
EC50 ([2]; both partners purified): 17 nM
